T1: Human glycophorin A extract (hGPA extract) (human, UniProt P02724 20-150)
T1 construct: also called human GPA extracted from red blood cells (extract)
T1 sequence (looked up): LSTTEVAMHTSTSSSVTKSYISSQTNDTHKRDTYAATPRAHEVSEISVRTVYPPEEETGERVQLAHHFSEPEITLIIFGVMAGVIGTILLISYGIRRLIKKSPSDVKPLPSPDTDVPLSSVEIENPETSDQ

T2: Human glycophorin A on human erythrocytes (human, UniProt P02724 20-150)
T2 construct: whole, on cells; Target of the flow cytometry assays on human erythrocytes; also called human GPA; hGPA
T2 sequence (looked up): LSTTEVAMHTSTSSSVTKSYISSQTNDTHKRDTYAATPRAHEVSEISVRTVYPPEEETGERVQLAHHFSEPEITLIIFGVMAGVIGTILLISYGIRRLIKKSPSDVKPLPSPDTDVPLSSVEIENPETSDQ


Key:
[1] = biological target: T1, Human glycophorin A extract (hGPA …); assay: Octet BLI, hGPA extract, apparent KD
[2] = biological target: T2, Human glycophorin A on human …; assay: flow cytometry (FACS) on human erythrocytes, soluble Fab
[3] = biological target: T1, Human glycophorin A extract (hGPA …); assay: Biacore SPR, hGPA extract, apparent KD
[4] = biological target: T1, Human glycophorin A extract (hGPA …); assay: Biacore SPR, hGPA extract, apparent
[5] = biological target: T1, Human glycophorin A extract (hGPA …); assay: Octet BLI, hGPA extract, apparent

Binder	Kd [1]	EC50 [2]	Kd [3]	koff [4]	kon [4]	koff [5]	kon [5]
Humanized 10F7-M10 Fab (non-affinity matured) (Fab, Soluble Fab expressed in HEK cells; also called clone m10; wild-type 10F7-M10) heavy: EVQLLESGGGLVQPGKSLRLSCKASGYTFNSYFMHWVRQAPGKGLEWVGMIRPNGGTTDYNEKFKNRFTLSVDKSKNTAYLQMNSLRAEDTAVYYCARWEGSYYALDYWGQGTASTKGPSVFPLAPSSKSTSGGTAALGCLVKDYFPEPVTVSWNSGALTSGVHTFPAVLQSSGLYSLSSVVTVPSSSLGTQTYICNVNHKPSNTKVDKKVEPKSC light: EITLTQSPATLSLSPGERATLSCRASSNVKYMYWYQQKPGQAPRLWIYYTSNLASGIPDRFSGSGSGTDYTLTISRLEPEDFAVYYCQQFTSSPYTFGQGTKVEVKRTVAAPSVFIFPPSDEQLKSGTASVVCLLNNFYPREAKVQWKVDNALQSGNSQESVTEQDSKDSTYSLSSTLTLSKADYEKHKVYACEVTHQGLSSPVTKSFNRGEC	140 nM	73 nM	141 nM	0.00667 s⁻¹	47300 M⁻¹ s⁻¹	0.0067 s⁻¹	47000 M⁻¹ s⁻¹
Humanized & affinity matured 10F7-M10 Fab clone L1+2-1 (Fab, Soluble Fab from HEK cells; all domains other than VL are the same as wild-type 10F7-M10; also called FF-HH-N) heavy: EVQLLESGGGLVQPGKSLRLSCKASGYTFNSYFMHWVRQAPGKGLEWVGMIRPNGGTTDYNEKFKNRFTLSVDKSKNTAYLQMNSLRAEDTAVYYCARWEGSYYALDYWGQGTASTKGPSVFPLAPSSKSTSGGTAALGCLVKDYFPEPVTVSWNSGALTSGVHTFPAVLQSSGLYSLSSVVTVPSSSLGTQTYICNVNHKPSNTKVDKKVEPKSC light: EITLTQSPATLSLSPGERATLSCRASSNVFFMYWYQQKPGQAPRLWIHHTSNLASGIPDRFSGSGSGTDYTLTISRLEPEDFAVYYCQQFTSSPYTFGQGTKVEVKRTVAAPSVFIFPPSDEQLKSGTASVVCLLNNFYPREAKVQWKVDNALQSGNSQESVTEQDSKDSTYSLSSTLTLSKADYEKHKVYACEVTHQGLSSPVTKSFNRGEC	5.9 nM	3.3 nM	5.95 nM	0.00185 s⁻¹	311000 M⁻¹ s⁻¹	0.0018 s⁻¹	310000 M⁻¹ s⁻¹
Humanized & affinity matured 10F7-M10 Fab clone L1+2-8 (Fab, Soluble Fab from HEK cells; all domains other than VL are the same as wild-type 10F7-M10; also called ID-HH-Y) heavy: EVQLLESGGGLVQPGKSLRLSCKASGYTFNSYFMHWVRQAPGKGLEWVGMIRPNGGTTDYNEKFKNRFTLSVDKSKNTAYLQMNSLRAEDTAVYYCARWEGSYYALDYWGQGTASTKGPSVFPLAPSSKSTSGGTAALGCLVKDYFPEPVTVSWNSGALTSGVHTFPAVLQSSGLYSLSSVVTVPSSSLGTQTYICNVNHKPSNTKVDKKVEPKSC light: EITLTQSPATLSLSPGERATLSCRASSNVIDMYWYQQKPGQAPRLWIHHTSYLASGIPDRFSGSGSGTDYTLTISRLEPEDFAVYYCQQFTSSPYTFGQGTKVEVKRTVAAPSVFIFPPSDEQLKSGTASVVCLLNNFYPREAKVQWKVDNALQSGNSQESVTEQDSKDSTYSLSSTLTLSKADYEKHKVYACEVTHQGLSSPVTKSFNRGEC	11 nM	14 nM	11 nM	0.00218 s⁻¹	198000 M⁻¹ s⁻¹	0.0022 s⁻¹	200000 M⁻¹ s⁻¹
Humanized & affinity matured 10F7-M10 Fab clone L1+2-10 (Fab, Soluble Fab from HEK cells; all domains other than VL are the same as wild-type 10F7-M10; also called WF-HH-E) heavy: EVQLLESGGGLVQPGKSLRLSCKASGYTFNSYFMHWVRQAPGKGLEWVGMIRPNGGTTDYNEKFKNRFTLSVDKSKNTAYLQMNSLRAEDTAVYYCARWEGSYYALDYWGQGTASTKGPSVFPLAPSSKSTSGGTAALGCLVKDYFPEPVTVSWNSGALTSGVHTFPAVLQSSGLYSLSSVVTVPSSSLGTQTYICNVNHKPSNTKVDKKVEPKSC light: EITLTQSPATLSLSPGERATLSCRASSNVWFMYWYQQKPGQAPRLWIHHTSELASGIPDRFSGSGSGTDYTLTISRLEPEDFAVYYCQQFTSSPYTFGQGTKVEVKRTVAAPSVFIFPPSDEQLKSGTASVVCLLNNFYPREAKVQWKVDNALQSGNSQESVTEQDSKDSTYSLSSTLTLSKADYEKHKVYACEVTHQGLSSPVTKSFNRGEC	6.4 nM	3.3 nM	6.43 nM	0.00143 s⁻¹	222000 M⁻¹ s⁻¹	0.0014 s⁻¹	220000 M⁻¹ s⁻¹
Humanized & affinity matured 10F7-M10 Fab clone L1+2-14 (Fab, Soluble Fab from HEK cells; all domains other than VL are the same as wild-type 10F7-M10; also called HQ-HH-K) heavy: EVQLLESGGGLVQPGKSLRLSCKASGYTFNSYFMHWVRQAPGKGLEWVGMIRPNGGTTDYNEKFKNRFTLSVDKSKNTAYLQMNSLRAEDTAVYYCARWEGSYYALDYWGQGTASTKGPSVFPLAPSSKSTSGGTAALGCLVKDYFPEPVTVSWNSGALTSGVHTFPAVLQSSGLYSLSSVVTVPSSSLGTQTYICNVNHKPSNTKVDKKVEPKSC light: EITLTQSPATLSLSPGERATLSCRASSNVHQMYWYQQKPGQAPRLWIHHTSKLASGIPDRFSGSGSGTDYTLTISRLEPEDFAVYYCQQFTSSPYTFGQGTKVEVKRTVAAPSVFIFPPSDEQLKSGTASVVCLLNNFYPREAKVQWKVDNALQSGNSQESVTEQDSKDSTYSLSSTLTLSKADYEKHKVYACEVTHQGLSSPVTKSFNRGEC	33 nM	6.4 nM	32.8 nM	0.000568 s⁻¹	17300 M⁻¹ s⁻¹	0.00057 s⁻¹	17000 M⁻¹ s⁻¹

Next, values leading:

Kd [1]	EC50 [2]	Kd [3]	koff [4]	kon [4]	koff [5]	kon [5]	Binder
7 nM	3.4 nM	7 nM	0.00155 s⁻¹	222000 M⁻¹ s⁻¹	0.0016 s⁻¹	220000 M⁻¹ s⁻¹	Humanized & affinity matured 10F7-M10 Fab clone L1+2-15 (Fab, Soluble Fab from HEK cells; all domains other than VL are the same as wild-type 10F7-M10; also called FY-HH-W) heavy: EVQLLESGGGLVQPGKSLRLSCKASGYTFNSYFMHWVRQAPGKGLEWVGMIRPNGGTTDYNEKFKNRFTLSVDKSKNTAYLQMNSLRAEDTAVYYCARWEGSYYALDYWGQGTASTKGPSVFPLAPSSKSTSGGTAALGCLVKDYFPEPVTVSWNSGALTSGVHTFPAVLQSSGLYSLSSVVTVPSSSLGTQTYICNVNHKPSNTKVDKKVEPKSC light: EITLTQSPATLSLSPGERATLSCRASSNVFYMYWYQQKPGQAPRLWIHHTSWLASGIPDRFSGSGSGTDYTLTISRLEPEDFAVYYCQQFTSSPYTFGQGTKVEVKRTVAAPSVFIFPPSDEQLKSGTASVVCLLNNFYPREAKVQWKVDNALQSGNSQESVTEQDSKDSTYSLSSTLTLSKADYEKHKVYACEVTHQGLSSPVTKSFNRGEC
6 nM	3.4 nM	5.97 nM	0.000931 s⁻¹	156000 M⁻¹ s⁻¹	0.00093 s⁻¹	160000 M⁻¹ s⁻¹	Humanized & affinity matured 10F7-M10 Fab clone L1+2-17 (Fab, Soluble Fab from HEK cells; all domains other than VL are the same as wild-type 10F7-M10; also called YF-HH-D) heavy: EVQLLESGGGLVQPGKSLRLSCKASGYTFNSYFMHWVRQAPGKGLEWVGMIRPNGGTTDYNEKFKNRFTLSVDKSKNTAYLQMNSLRAEDTAVYYCARWEGSYYALDYWGQGTASTKGPSVFPLAPSSKSTSGGTAALGCLVKDYFPEPVTVSWNSGALTSGVHTFPAVLQSSGLYSLSSVVTVPSSSLGTQTYICNVNHKPSNTKVDKKVEPKSC light: EITLTQSPATLSLSPGERATLSCRASSNVYFMYWYQQKPGQAPRLWIHHTSDLASGIPDRFSGSGSGTDYTLTISRLEPEDFAVYYCQQFTSSPYTFGQGTKVEVKRTVAAPSVFIFPPSDEQLKSGTASVVCLLNNFYPREAKVQWKVDNALQSGNSQESVTEQDSKDSTYSLSSTLTLSKADYEKHKVYACEVTHQGLSSPVTKSFNRGEC
5.1 nM	3.7 nM	5.12 nM	0.00132 s⁻¹	257000 M⁻¹ s⁻¹	0.0013 s⁻¹	260000 M⁻¹ s⁻¹	Humanized & affinity matured 10F7-M10 Fab clone L1+2-21 (Fab, Soluble Fab from HEK cells; all domains other than VL are the same as wild-type 10F7-M10; also called YF-HH-V) heavy: EVQLLESGGGLVQPGKSLRLSCKASGYTFNSYFMHWVRQAPGKGLEWVGMIRPNGGTTDYNEKFKNRFTLSVDKSKNTAYLQMNSLRAEDTAVYYCARWEGSYYALDYWGQGTASTKGPSVFPLAPSSKSTSGGTAALGCLVKDYFPEPVTVSWNSGALTSGVHTFPAVLQSSGLYSLSSVVTVPSSSLGTQTYICNVNHKPSNTKVDKKVEPKSC light: EITLTQSPATLSLSPGERATLSCRASSNVYFMYWYQQKPGQAPRLWIHHTSVLASGIPDRFSGSGSGTDYTLTISRLEPEDFAVYYCQQFTSSPYTFGQGTKVEVKRTVAAPSVFIFPPSDEQLKSGTASVVCLLNNFYPREAKVQWKVDNALQSGNSQESVTEQDSKDSTYSLSSTLTLSKADYEKHKVYACEVTHQGLSSPVTKSFNRGEC
21 nM	23 nM	21 nM	0.00802 s⁻¹	382000 M⁻¹ s⁻¹	0.008 s⁻¹	380000 M⁻¹ s⁻¹	Humanized & affinity matured 10F7-M10 Fab clone L1+2-24 (Fab, Soluble Fab from HEK cells; all domains other than VL are the same as wild-type 10F7-M10; also called QQ-HH-I) heavy: EVQLLESGGGLVQPGKSLRLSCKASGYTFNSYFMHWVRQAPGKGLEWVGMIRPNGGTTDYNEKFKNRFTLSVDKSKNTAYLQMNSLRAEDTAVYYCARWEGSYYALDYWGQGTASTKGPSVFPLAPSSKSTSGGTAALGCLVKDYFPEPVTVSWNSGALTSGVHTFPAVLQSSGLYSLSSVVTVPSSSLGTQTYICNVNHKPSNTKVDKKVEPKSC light: EITLTQSPATLSLSPGERATLSCRASSNVQQMYWYQQKPGQAPRLWIHHTSILASGIPDRFSGSGSGTDYTLTISRLEPEDFAVYYCQQFTSSPYTFGQGTKVEVKRTVAAPSVFIFPPSDEQLKSGTASVVCLLNNFYPREAKVQWKVDNALQSGNSQESVTEQDSKDSTYSLSSTLTLSKADYEKHKVYACEVTHQGLSSPVTKSFNRGEC
–	100 nM	–	–	–	–	–	Humanized & affinity matured 10F7-M10 Fab clone L1+2-25 (Fab, also called L1 + 2-8-25; AW-YH-K) heavy: EVQLLESGGGLVQPGKSLRLSCKASGYTFNSYFMHWVRQAPGKGLEWVGMIRPNGGTTDYNEKFKNRFTLSVDKSKNTAYLQMNSLRAEDTAVYYCARWEGSYYALDYWGQGTASTKGPSVFPLAPSSKSTSGGTAALGCLVKDYFPEPVTVSWNSGALTSGVHTFPAVLQSSGLYSLSSVVTVPSSSLGTQTYICNVNHKPSNTKVDKKVEPKSC light: EITLTQSPATLSLSPGERATLSCRASSNVAWMYWYQQKPGQAPRLWIYHTSKLASGIPDRFSGSGSGTDYTLTISRLEPEDFAVYYCQQFTSSPYTFGQGTKVEVKRTVAAPSVFIFPPSDEQLKSGTASVVCLLNNFYPREAKVQWKVDNALQSGNSQESVTEQDSKDSTYSLSSTLTLSKADYEKHKVYACEVTHQGLSSPVTKSFNRGEC

From patent US20220153859A1 (ANOKION, published 2022)
